Experimental data published in paper PMC2973827.

Target: SARS-CoV nsp12 (RdRp) (SARS-coronavirus, UniProt P0C6X7 4370-5301)
Assay: EMSA; no Zn2+
Details: protein: recombinant; tags: C-terminal His6 (plasmid pASK3-Ub-nsp12-CHis6, ubiquitin fusion vector); label: 5' 32P

B1: SAV557R/SAV481R primed template duplex (dsRNA)
RNA 1: GCUAUGUGAGAUUAAGUUAU
RNA 2: UUUUUUUUUUAUAACUUAAUCUCACAUAGC
B1: binds.
